# Assay results reported in the RNAGym collection of RNA variant scans (doi:10.7554/elife.80360).
# B1: CPEB3 Ribozyme (parent)
# chain: GGGGGCCACAGCAGAAGCGUUCACGUCGCGGCCCCUGUCAGAUUCUGGUGAAUCUGCGAAUUCUGCUGU
# Variants of: B1
# Assay: self-cleavage, relative activity (ratio to wild type); higher = more cleavage; co-transcriptional
row,Variant,self-cleavage
1,GCGGUCCACAGCAGAAGCGUUCACGUCGCGGCCCCUGUCAGAUUCUGGUGAAUCUGCGAAUUCUGCUGU [G2C G5U],0.0585
2,GCGGCCCACAGCAGAAGCGUUCACGUCGCGGCCCCUGUCAGAUUCUGGUGAAUCUGCGAAUUCUGCUGU [G2C G5C],0.0267
3,GCGGGCCACAGCAGAAGCGGUCACGUCGCGGCCCCUGUCAGAUUCUGGUGAAUCUGCGAAUUCUGCUGU [G2C U20G],0.0688
4,GCGGGCCACAGCAGAAGCGUUCACGUCGCGGCCCCUGUCAGAUUCUGGUGAAUCUGCGAAUUCUGCUUU [G2C G68U],0.0864
5,GCGGGCCACAGCAGAAGCGUUCACGUCGCGGCCCCUGUCAGAUUCUGAUGAAUCUGCGAAUUCUGCUGU [G2C G48A],0.0788
6,GCGGGCCACAGCAGAAGCGUUCACGUCGCGGCCGCUGUCAGAUUCUGGUGAAUCUGCGAAUUCUGCUGU [G2C C34G],0.0583
7,GCGGGCCACAGCAGAAGCGUUCACGUCGCGGCCCCUGUCAGAUGCUGGUGAAUCUGCGAAUUCUGCUGU [G2C U44G],0.06
8,GCGGGCCACAGCAGAAGCGUUCACGUCGCGGCCCCUGUCAGAUACUGGUGAAUCUGCGAAUUCUGCUGU [G2C U44A],0.0552
9,GCGGGCCACAGCAGAAUCGUUCACGUCGCGGCCCCUGUCAGAUUCUGGUGAAUCUGCGAAUUCUGCUGU [G2C G17U],0.0711
10,GCGGGCCACAGCAGAAGCGUUCACGUCGCGGCCCCUGUCAGAUUCUGGUGAAUCUGCGAAUUCUGGUGU [G2C C66G],0.0186
11,GCGGGCCACAGCAGAAGCGUUCACGUCGCGGCCCCUGUCAGAUUCUGGUGAAUCAGCGAAUUCUGCUGU [G2C U55A],0.0429
12,GCGGGCCACAGCAGAAGCGUUCACAUCGCGGCCCCUGUCAGAUUCUGGUGAAUCUGCGAAUUCUGCUGU [G2C G25A],0.0488
13,GCGGGCCACAGCAGAAGCGUUCACGUCGCGGCCCCUGUCAGAGUCUGGUGAAUCUGCGAAUUCUGCUGU [G2C U43G],0.0524
14,GCGGGCCACAGCAUAAGCGUUCACGUCGCGGCCCCUGUCAGAUUCUGGUGAAUCUGCGAAUUCUGCUGU [G2C G14U],0.0531
15,GCGGGCCACAGCAGAAGCGUUCACGUCGCGGCCCCUGUCAGAUUCUGGUAAAUCUGCGAAUUCUGCUGU [G2C G50A],0.0951
16,GCGGGCCACAGCAGAAGCGUUCACGUCGCCGCCCCUGUCAGAUUCUGGUGAAUCUGCGAAUUCUGCUGU [G2C G30C],0.072
17,GCGGGCCACAGCAGAAGCGUUCACGUCGCGGCCCCUGACAGAUUCUGGUGAAUCUGCGAAUUCUGCUGU [G2C U38A],0.0483
18,GCGGGCCACAGCAGAAGCGUCCACGUCGCGGCCCCUGUCAGAUUCUGGUGAAUCUGCGAAUUCUGCUGU [G2C U21C],0.0403
19,GCGGGCCACAGCAGAAGCGUUCACGUCGCGGCCCCUGUCAGAUUCUGGUGAAUCUGCGAAUUCUUCUGU [G2C G65U],0.102
20,GCGGGCCACAGCAGAAGCGUUCACGUCGCGGCCCCUGUCAGAUUCUGGUGAAUCUGCGAAUUCUACUGU [G2C G65A],0.0284

row,Variant,self-cleavage
1,GCGGGCCACAGCAGAAGCGUUCACGUCGCGGCCCUUGUCAGAUUCUGGUGAAUCUGCGAAUUCUGCUGU [G2C C35U],0.0408
2,GCGGGCCACAGCAGAAGCGUUCACGUCGCGGCCCCUCUCAGAUUCUGGUGAAUCUGCGAAUUCUGCUGU [G2C G37C],0.0304
3,GCGGGCCACAGCAGAAGCGUUCACGUCGCGGCCCCUGUCAGAUUCUGGUGAAUCUGCGAAUCCUGCUGU [G2C U62C],0.011
4,GCGGGCCACAGCAGAAGCGUUCACGUCGCGGCCCCUGUCAGAUUCUGGUGAAUCUGCGAAUUUUGCUGU [G2C C63U],0.0396
5,GCGGGCCACAGCAGAAGCGUUCACGUCGCGGCCCCUGUCAGAUUCUGGUGAAUCUGCGAAUUAUGCUGU [G2C C63A],0.0459
6,GCGGGCCACAGCAGAAGCGUUCACGUCGCGGCCCCAGUCAGAUUCUGGUGAAUCUGCGAAUUCUGCUGU [G2C U36A],0.0481
7,GCGGGCCACAGCAGAAGCGUUCACGUCGCGGCCCCGGUCAGAUUCUGGUGAAUCUGCGAAUUCUGCUGU [G2C U36G],0.052
8,GCGGGCCACAGCAGAAGCGUUCACGUCGCGGCCCCUGUCAGAUUCUGGUGAAUCUGCAAAUUCUGCUGU [G2C G58A],0.0591
9,GCGGGCCACAGCAGAAGCGUUCACGUCGCGGCCCCUGUCAAAUUCUGGUGAAUCUGCGAAUUCUGCUGU [G2C G41A],0.0552
10,GCGGGCCACAGCAGAAGCAUUCACGUCGCGGCCCCUGUCAGAUUCUGGUGAAUCUGCGAAUUCUGCUGU [G2C G19A],0.0455
11,GCGGGCCACAGCAGAAGCGUUCACGUCGCGGCCCCUGUCAGAUUCUGGUGAAACUGCGAAUUCUGCUGU [G2C U53A],0.0158
12,GCGGGCCACAGCAGAAGCGUUCACGUCGCGGCCCCUGUCAGAUUCUGGUGAACCUGCGAAUUCUGCUGU [G2C U53C],0.0834
13,GCGGGCCACAGCAGAAGCGUUCACGUCGAGGCCCCUGUCAGAUUCUGGUGAAUCUGCGAAUUCUGCUGU [G2C C29A],0.0311
14,GCUGGCCACAGCAGAAGCGUUCACGUCGCGGCCCCUGUCAGAUUCUGGUGAAUCUGCGAAUUCUGCUGU [G2C G3U],0.0339
15,GCGGGCCACAGCAGAAGCGUUCACGUCGCGGCCCCUGUCAGAUUCUGGUGAAUGUGCGAAUUCUGCUGU [G2C C54G],0.0261
16,GCGGGCCACAGCAGAAGCGUUCACGUCGCGGCCCCUGUCAGAUUCUAGUGAAUCUGCGAAUUCUGCUGU [G2C G47A],0.0652
17,GCGGGCCACAGCAGAAGCGUUCACGUCGCGGCCCCUGUCAGAUUCUUGUGAAUCUGCGAAUUCUGCUGU [G2C G47U],0.0378
18,GCGGGCCACAGCAGAAGCGUUCACGUCGCGGCCCCUGUAAGAUUCUGGUGAAUCUGCGAAUUCUGCUGU [G2C C39A],0.108
19,GCGGGCCACAGCAGAAGCGUUCACGUCGCGGCCCCUGUGAGAUUCUGGUGAAUCUGCGAAUUCUGCUGU [G2C C39G],0.0347
